# According to patent US20190153061A1:
# Target: B-cell maturation antigen (BCMA) expressed on cells (human), Q02223
# Test: cell-based or functional assay
# Sequence of B-cell maturation antigen (BCMA) expressed on cells (human), Q02223 (Q02223 whole entry): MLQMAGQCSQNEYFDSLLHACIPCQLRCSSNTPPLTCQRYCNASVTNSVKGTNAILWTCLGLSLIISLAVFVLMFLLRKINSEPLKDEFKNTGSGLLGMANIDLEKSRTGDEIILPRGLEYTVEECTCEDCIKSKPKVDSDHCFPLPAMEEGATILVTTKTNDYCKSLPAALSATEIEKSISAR
Binder,"JNL binding assay, ratio to K562; K562-BCMA","JNL binding assay, ratio to K562; NCI-H929","JNL binding assay, ratio to K562; RPMI 8226","Proliferation, CD3 ratio to no target; K562-BCMA","Proliferation, CD3 ratio to no target; KMS11-luc","Proliferation, CD3 ratio to no target; NCI-H929","Proliferation, CD3 ratio to no target; RPMI 8226","Proliferation, CD4 ratio to no target; K562-BCMA","Proliferation, CD4 ratio to no target; KMS11-luc",Cell killing EC50; KMS11-luc [not printed]
BCMA-14 CAR (139113) (protein) EVQLVETGGGLVQPGGSLRLSCAVSGFALSNHGMSWVRRAPGKGLEWVSGIVYSGSTYYAASVKGRFTISRDNSRNTLYLQMNSLRPEDTAIYYCSAHGGESDVWGQGTTVTVSSASGGGGSGGRASGGGGSETTLTQSPATLSVSPGERATLSCRASQSVGSNLAWYQQKPGQGPRLLIYGASTRATGIPARFSGSGSGTEFTLTISSLQPEDFAVYYCQQYNDWLPVTFGQGTKVEIKTTTPAPRPPTPAPTIASQPLSLRPEACRPAAGGAVHTRGLDFACDIYIWAPLAGTCGVLLLSLVITLYCKRGRKKLLYIFKQPFMRPVQTTQEEDGCSCRFPEEEEGGCELRVKFSRSADAPAYKQGQNQLYNELNLGRREEYDVLDKRRGRDPEMGGKPRRKNPQEGLYNELQKDKMAEAYSEIGMKGERRRGKGHDGLYQGLSTATKDTYDALHMQALPPR,2.81,2.65,3.31,4.12,3.42,3.86,3.93,5.73,3.97,0.12
BCMA-15 CAR (139114) (protein) EVQLVESGGGLVQPGGSLRLSCAVSGFALSNHGMSWVRRAPGKGLEWVSGIVYSGSTYYAASVKGRFTISRDNSRNTLYLQMNSLRPEDTAIYYCSAHGGESDVWGQGTTVTVSSASGGGGSGGRASGGGGSEIVLTQSPGTLSLSPGERATLSCRASQSIGSSSLAWYQQKPGQAPRLLMYGASSRASGIPDRFSGSGSGTDFTLTISRLEPEDFAVYYCQQYAGSPPFTFGQGTKVEIKTTTPAPRPPTPAPTIASQPLSLRPEACRPAAGGAVHTRGLDFACDIYIWAPLAGTCGVLLLSLVITLYCKRGRKKLLYIFKQPFMRPVQTTQEEDGCSCRFPEEEEGGCELRVKFSRSADAPAYKQGQNQLYNELNLGRREEYDVLDKRRGRDPEMGGKPRRKNPQEGLYNELQKDKMAEAYSEIGMKGERRRGKGHDGLYQGLSTATKDTYDALHMQALPPR,2.91,2.79,3.49,3.94,3.51,4.08,3.73,4.87,3.82,0.11

# The next lines start with results.
"JNL binding assay, ratio to K562; K562-BCMA","JNL binding assay, ratio to K562; NCI-H929","JNL binding assay, ratio to K562; RPMI 8226","Proliferation, CD3 ratio to no target; K562-BCMA","Proliferation, CD3 ratio to no target; KMS11-luc","Proliferation, CD3 ratio to no target; NCI-H929","Proliferation, CD3 ratio to no target; RPMI 8226","Proliferation, CD4 ratio to no target; K562-BCMA","Proliferation, CD4 ratio to no target; KMS11-luc",Binder,Cell killing EC50; KMS11-luc [not printed]
3.74,2.68,3.66,3.47,3.2,3.46,3.48,5.4,3.84,BCMA-13 CAR (139112) (protein) QVQLVESGGGLVQPGGSLRLSCAVSGFALSNHGMSWVRRAPGKGLEWVSGIVYSGSTYYAASVKGRFTISRDNSRNTLYLQMNSLRPEDTAIYYCSAHGGESDVWGQGTTVTVSSASGGGGSGGRASGGGGSDIRLTQSPSPLSASVGDRVTITCQASEDINKFLNWYHQTPGKAPKLLIYDASTLQTGVPSRFSGSGSGTDFTLTINSLQPEDIGTYYCQQYESLPLTFGGGTKVEIKTTTPAPRPPTPAPTIASQPLSLRPEACRPAAGGAVHTRGLDFACDIYIWAPLAGTCGVLLLSLVITLYCKRGRKKLLYIFKQPFMRPVQTTQEEDGCSCRFPEEEEGGCELRVKFSRSADAPAYKQGQNQLYNELNLGRREEYDVLDKRRGRDPEMGGKPRRKNPQEGLYNELQKDKMAEAYSEIGMKGERRRGKGHDGLYQGLSTATKDTYDALHMQALPPR,0.11
3.15,2.27,3.54,5.52,5.41,6.52,5.83,8.5,5.54,"BCMA-4NP tool CAR (126021) (protein, not shown: a dimerising Fc or GST) QVQLVQSGAEVKKPGSSVKVSCKASGGTFSNYWMHWVRQAPGQGLEWMGATYRGHSDTYYNQKFKGRVTITADKSTSTAYMELSSLRSEDTAVYYCARGAIYNGYDVLDNWGQGTLVTVSSGGGGSGGGGSGGGGSGGGGSDIQMTQSPSSLSASVGDRVTITCSASQDISNYLNWYQQKPGKAPKLLIYYTSNLHSGVPSRFSGSGSGTDFTLTISSLQPEDFATYYCQQYRKLPWTFGQGTKLEIKR",0.12

# Same assay, conditions: not given
Binder,"Proliferation, CD4 ratio to no target; NCI-H929","Proliferation, CD4 ratio to no target; RPMI 8226","Proliferation, CD8 ratio to no target; K562-BCMA","Proliferation, CD8 ratio to no target; KMS11-luc","Proliferation, CD8 ratio to no target; NCI-H929","Proliferation, CD8 ratio to no target; RPMI 8226"
BCMA-14 CAR (139113) (protein) EVQLVETGGGLVQPGGSLRLSCAVSGFALSNHGMSWVRRAPGKGLEWVSGIVYSGSTYYAASVKGRFTISRDNSRNTLYLQMNSLRPEDTAIYYCSAHGGESDVWGQGTTVTVSSASGGGGSGGRASGGGGSETTLTQSPATLSVSPGERATLSCRASQSVGSNLAWYQQKPGQGPRLLIYGASTRATGIPARFSGSGSGTEFTLTISSLQPEDFAVYYCQQYNDWLPVTFGQGTKVEIKTTTPAPRPPTPAPTIASQPLSLRPEACRPAAGGAVHTRGLDFACDIYIWAPLAGTCGVLLLSLVITLYCKRGRKKLLYIFKQPFMRPVQTTQEEDGCSCRFPEEEEGGCELRVKFSRSADAPAYKQGQNQLYNELNLGRREEYDVLDKRRGRDPEMGGKPRRKNPQEGLYNELQKDKMAEAYSEIGMKGERRRGKGHDGLYQGLSTATKDTYDALHMQALPPR,5.07,4.84,2.65,2.83,2.73,3.03
BCMA-15 CAR (139114) (protein) EVQLVESGGGLVQPGGSLRLSCAVSGFALSNHGMSWVRRAPGKGLEWVSGIVYSGSTYYAASVKGRFTISRDNSRNTLYLQMNSLRPEDTAIYYCSAHGGESDVWGQGTTVTVSSASGGGGSGGRASGGGGSEIVLTQSPGTLSLSPGERATLSCRASQSIGSSSLAWYQQKPGQAPRLLMYGASSRASGIPDRFSGSGSGTDFTLTISRLEPEDFAVYYCQQYAGSPPFTFGQGTKVEIKTTTPAPRPPTPAPTIASQPLSLRPEACRPAAGGAVHTRGLDFACDIYIWAPLAGTCGVLLLSLVITLYCKRGRKKLLYIFKQPFMRPVQTTQEEDGCSCRFPEEEEGGCELRVKFSRSADAPAYKQGQNQLYNELNLGRREEYDVLDKRRGRDPEMGGKPRRKNPQEGLYNELQKDKMAEAYSEIGMKGERRRGKGHDGLYQGLSTATKDTYDALHMQALPPR,4.82,4.24,1.89,2.73,2.42,2.51

# Continued, values first:
"Proliferation, CD4 ratio to no target; NCI-H929","Proliferation, CD4 ratio to no target; RPMI 8226","Proliferation, CD8 ratio to no target; K562-BCMA","Proliferation, CD8 ratio to no target; KMS11-luc","Proliferation, CD8 ratio to no target; NCI-H929","Proliferation, CD8 ratio to no target; RPMI 8226",Binder
5.05,4.44,2.34,2.79,2.53,2.86,BCMA-13 CAR (139112) (protein) QVQLVESGGGLVQPGGSLRLSCAVSGFALSNHGMSWVRRAPGKGLEWVSGIVYSGSTYYAASVKGRFTISRDNSRNTLYLQMNSLRPEDTAIYYCSAHGGESDVWGQGTTVTVSSASGGGGSGGRASGGGGSDIRLTQSPSPLSASVGDRVTITCQASEDINKFLNWYHQTPGKAPKLLIYDASTLQTGVPSRFSGSGSGTDFTLTINSLQPEDIGTYYCQQYESLPLTFGGGTKVEIKTTTPAPRPPTPAPTIASQPLSLRPEACRPAAGGAVHTRGLDFACDIYIWAPLAGTCGVLLLSLVITLYCKRGRKKLLYIFKQPFMRPVQTTQEEDGCSCRFPEEEEGGCELRVKFSRSADAPAYKQGQNQLYNELNLGRREEYDVLDKRRGRDPEMGGKPRRKNPQEGLYNELQKDKMAEAYSEIGMKGERRRGKGHDGLYQGLSTATKDTYDALHMQALPPR
8.98,8.5,3.06,5.2,4.31,3.49,"BCMA-4NP tool CAR (126021) (protein, not shown: a dimerising Fc or GST) QVQLVQSGAEVKKPGSSVKVSCKASGGTFSNYWMHWVRQAPGQGLEWMGATYRGHSDTYYNQKFKGRVTITADKSTSTAYMELSSLRSEDTAVYYCARGAIYNGYDVLDNWGQGTLVTVSSGGGGSGGGGSGGGGSGGGGSDIQMTQSPSSLSASVGDRVTITCSASQDISNYLNWYQQKPGKAPKLLIYYTSNLHSGVPSRFSGSGSGTDFTLTISSLQPEDFATYYCQQYRKLPWTFGQGTKLEIKR"
